Assay results: article PMC7413564, “Phase separation of Arabidopsis EMB1579 controls transcription, mRNA splicing, and development” (PLoS Biology, 2020)

T1: Oregon Green-labeled EMB1579 (Arabidopsis thaliana, UniProt F4IS91-1 1-1340, Oregon Green label (site not stated))
T1 construct: full-length CDS amplified from seedling cDNA; phase-separated in F-buffer in the assay; also called Oregon Green-EMB1579; EMB1579 condensates; source: Sf9 insect cells (pFastBac1-EMB1579), purified (Ni-NTA, SuperDex 200 Increase), labelled with Oregon Green
T1 sequence (looked up): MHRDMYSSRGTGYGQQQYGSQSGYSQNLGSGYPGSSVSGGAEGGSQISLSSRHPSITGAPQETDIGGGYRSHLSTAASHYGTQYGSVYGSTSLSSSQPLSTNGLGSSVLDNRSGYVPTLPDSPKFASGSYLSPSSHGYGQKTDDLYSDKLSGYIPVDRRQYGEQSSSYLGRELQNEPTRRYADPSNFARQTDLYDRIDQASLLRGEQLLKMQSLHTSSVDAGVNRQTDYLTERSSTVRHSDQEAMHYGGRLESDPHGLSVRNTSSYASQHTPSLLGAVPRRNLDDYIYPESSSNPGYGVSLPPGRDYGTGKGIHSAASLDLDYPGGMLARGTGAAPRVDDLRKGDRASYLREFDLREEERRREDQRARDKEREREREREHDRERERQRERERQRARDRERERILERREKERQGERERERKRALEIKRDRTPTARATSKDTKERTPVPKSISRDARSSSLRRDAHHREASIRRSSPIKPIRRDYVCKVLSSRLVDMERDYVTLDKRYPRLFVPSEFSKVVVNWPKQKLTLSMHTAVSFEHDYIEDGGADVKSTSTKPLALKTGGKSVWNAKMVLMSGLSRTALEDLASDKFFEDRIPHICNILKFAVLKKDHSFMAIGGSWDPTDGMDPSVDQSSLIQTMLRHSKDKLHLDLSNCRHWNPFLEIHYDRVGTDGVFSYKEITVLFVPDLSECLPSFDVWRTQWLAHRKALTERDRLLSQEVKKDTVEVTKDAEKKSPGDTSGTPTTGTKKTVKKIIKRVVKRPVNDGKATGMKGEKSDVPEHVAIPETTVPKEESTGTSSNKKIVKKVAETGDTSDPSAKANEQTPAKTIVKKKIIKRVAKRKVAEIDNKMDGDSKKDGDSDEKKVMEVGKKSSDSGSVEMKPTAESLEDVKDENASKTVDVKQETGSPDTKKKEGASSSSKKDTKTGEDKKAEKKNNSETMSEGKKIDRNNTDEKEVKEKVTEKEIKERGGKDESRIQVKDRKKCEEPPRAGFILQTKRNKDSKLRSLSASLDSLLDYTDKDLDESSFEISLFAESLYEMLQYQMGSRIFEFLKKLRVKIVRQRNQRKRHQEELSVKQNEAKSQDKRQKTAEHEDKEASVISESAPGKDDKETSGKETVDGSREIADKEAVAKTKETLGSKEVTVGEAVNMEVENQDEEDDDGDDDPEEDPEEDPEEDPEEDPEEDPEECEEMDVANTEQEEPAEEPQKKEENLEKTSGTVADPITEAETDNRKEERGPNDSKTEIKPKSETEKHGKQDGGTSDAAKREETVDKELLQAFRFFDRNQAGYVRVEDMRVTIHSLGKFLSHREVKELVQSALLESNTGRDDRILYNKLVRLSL

B1: mCherry-MSI4 (natural protein, Arabidopsis thaliana, UniProt O22607 1-507, looked up)
chain: MESDEAAAVSPQATTPSGGTGASGPKKRGRKPKTKEDSQTPSSQQQSDVKMKESGKKTQQSPSVDEKYSQWKGLVPILYDWLANHNLVWPSLSCRWGPQLEQATYKNRQRLYLSEQTDGSVPNTLVIANCEVVKPRVAAAEHISQFNEEARSPFVKKYKTIIHPGEVNRIRELPQNSKIVATHTDSPDVLIWDVETQPNRHAVLGAANSRPDLILTGHQDNAEFALAMCPTEPFVLSGGKDKSVVLWSIQDHITTIGTDSKSSGSIIKQTGEGTDKNESPTVGPRGVYHGHEDTVEDVAFSPTSAQEFCSVGDDSCLILWDARTGTNPVTKVEKAHDADLHCVDWNPHDDNLILTGSADNTVRLFDRRKLTANGVGSPIYKFEGHKAAVLCVQWSPDKSSVFGSSAEDGLLNIWDYDRVSKKSDRAAKSPAGLFFQHAGHRDKVVDFHWNASDPWTIVSVSDDCETTGGGGTLQIWRMSDLIYRPEEEVVAELEKFKSHVMTCASKP
notes: MSI4, Arabidopsis; amplified with MSI4-SalI-F/MSI4-XbaI-R2 from pEZS-NL-RFP-MSI4 and moved into pColdI-mCherry; also called recombinant MSI4 protein; source: E. coli BL21 (DE3) (pColdI-mCherry-MSI4), purified (Ni-NTA); not shown: mCherry, N-terminal, kept
B2: mCherry-DDB1B (natural protein, Arabidopsis thaliana, UniProt O49552 1-1088, looked up)
chain: MSVWNYAVTAQKPTCVTHSCVGNFTSPQELNLIVAKSTRIEIHLLSPQGLQTILDVPLYGRIATMELFRPHGEAQDFLFVATERYKFCVLQWDYESSELITRAMGDVSDRIGRPTDNGQIGIIDPDCRVIGLHLYDGLFKVIPFDNKGQLKEAFNIRLEELQVLDIKFLYGCTKPTIAVLYQDNKDARHVKTYEVSLKDKNFVEGPWSQNNLDNGADLLIPVPSPLCGVLIIGEETIVYCSANAFKAIPIRPSITKAYGRVDLDGSRYLLGDHAGLIHLLVITHEKEKVTGLKIELLGETSIASSISYLDNAVVFVGSSYGDSQLIKLNLQPDAKGSYVEILEKYVNLGPIVDFCVVDLERQGQGQVVTCSGAYKDGSLRIVRNGIGINEQASVELQGIKGMWSLKSSIDEAFDTFLVVSFISETRILAMNIEDELEETEIEGFLSEVQTLFCHDAVYNQLVQVTSNSVRLVSSTTRELRNKWDAPAGFSVNVATANASQVLLATGGGHLVYLEIGDGTLTEVKHVLLEYEVSCLDINPIGDNPNYSQLAAVGMWTDISVRIFVLPDLTLITKEELGGEIIPRSVLLCAFEGISYLLCALGDGHLLNFQLDTSCGKLRDRKKVSLGTRPITLRTFSSKSATHVFAASDRPAVIYSNNKKLLYSNVNLKEVSHMCPFNSAAFPDSLAIAREGELTIGTIDDIQKLHIRTIPIGEHARRICHQEQTRTFAISCLRNEPSAEESESHFVRLLDAQSFEFLSSYPLDAFECGCSILSCSFTDDKNVYYCVGTAYVLPEENEPTKGRILVFIVEEGRLQLITEKETKGAVYSLNAFNGKLLASINQKIQLYKWMLRDDGTRELQSECGHHGHILALYVQTRGDFIAVGDLMKSISLLIYKHEEGAIEERARDYNANWMTAVEILNDDIYLGTDNCFNIFTVKKNNEGATDEERARMEVVGEYHIGEFVNRFRHGSLVMKLPDSDIGQIPTVIFGTVSGMIGVIASLPQEQYAFLEKLQTSLRKVIKGVGGLSHEQWRSFNNEKRTAEAKGYLDGDLIESFLDLSRGKMEEISKGMDVQVEELCKRVEELTRLH
notes: DDB1B, Arabidopsis; amplified with DDB1B-EcoRI-F/DDB1B-SalI-R2 from pFGC5941-DDB1B-RFP and moved into pColdI behind mCherry; source: E. coli BL21 (DE3) (pColdI-mCherry-DDB1B), purified (Ni-NTA); not shown: mCherry, N-terminal, kept

Target: T1, Oregon Green-labeled EMB1579
Assay: recruitment into condensates in vitro (confocal fluorescence microscopy); Oregon Green-labeled EMB1579 (2.5 μM) with mCherry-DDB1B (500 nM) or mCherry-MSI4 (20 nM) in F-buffer (25 mM Hepes pH 8.0, 100 mM KCl, 100 mg/ml PEG 3350), 5 minutes, room temperature
Conditions: both partners purified

Binder	binding result
B1	binds
B2	binds
